Reference: patent US20180179296A1

Assays:
[1] = biological target: Design 26 L1: D3H44 light chain L135W (humanized); experiment: light chain competition assay: heavy chain co-expressed with L1 and L2, SPR read-out of light-chain tags; competitor Design 26 L2
[2] = biological target: Design 26 L2: D3H44 light chain F116A_S131K_L135A (humanized); experiment: light chain competition assay: heavy chain co-expressed with L1 and L2, SPR read-out of light-chain tags; competitor Design 26 L1
[3] = biological target: tissue factor extracellular domains (human) (UniProt P13726); experiment: SPR (ProteOn XPR36), TF immobilised, heterodimer as analyte, 1:1 model
[4] = biological target: Design 28 L2: D3H44 light chain F118W_V133S_S176A_T180E (humanized); experiment: light chain competition assay: heavy chain co-expressed with L1 and L2, SPR read-out of light-chain tags; competitor Design 28 L1
[5] = biological target: Design 28 L1: D3H44 light chain F116A_S131K_V133G_S176F_T178A (humanized); experiment: light chain competition assay: heavy chain co-expressed with L1 and L2, SPR read-out of light-chain tags; competitor Design 28 L2
[6] = biological target: Design 13 L2: D3H44 light chain V133A_Q160K_T178R (humanized); experiment: light chain competition assay: heavy chain co-expressed with L1 and L2, SPR read-out of light-chain tags; competitor Design 13 L1
[7] = biological target: Design 13 L1: D3H44 light chain Q124E_V133W_Q160E_T180E (humanized); experiment: light chain competition assay: heavy chain co-expressed with L1 and L2, SPR read-out of light-chain tags; competitor Design 13 L2
[8] = biological target: Design 30 L1: D3H44 light chain Q124E_Q160E_T180E (humanized); experiment: light chain competition assay: heavy chain co-expressed with L1 and L2, SPR read-out of light-chain tags; competitor Design 30 L2
[9] = biological target: Design 30 L2: D3H44 light chain Q160K_T178R (humanized); experiment: light chain competition assay: heavy chain co-expressed with L1 and L2, SPR read-out of light-chain tags; competitor Design 30 L1
[10] = biological target: Design 12 L1: D3H44 light chain L89R_F98W (humanized); experiment: light chain competition assay: heavy chain co-expressed with L1 and L2, SPR read-out of light-chain tags; competitor Design 12 L2 (WT)
[11] = biological target: D3H44 light chain, wild type (Design 12 L2) (humanized); experiment: light chain competition assay: heavy chain co-expressed with L1 and L2, SPR read-out of light-chain tags; competitor Design 12 L1
[12] = biological target: Design 15 L2: D3H44 light chain Q160K_T178R (humanized); experiment: light chain competition assay: heavy chain co-expressed with L1 and L2, SPR read-out of light-chain tags; competitor Design 15 L1
[13] = biological target: Design 15 L1: D3H44 light chain Q124E_Q160E_T178D (humanized); experiment: light chain competition assay: heavy chain co-expressed with L1 and L2, SPR read-out of light-chain tags; competitor Design 15 L2
[14] = biological target: Design 29 L1: D3H44 light chain Q124E_V133D (humanized); experiment: light chain competition assay: heavy chain co-expressed with L1 and L2, SPR read-out of light-chain tags; competitor Design 29 L2
[15] = biological target: Design 29 L2: D3H44 light chain Q124R (humanized); experiment: light chain competition assay: heavy chain co-expressed with L1 and L2, SPR read-out of light-chain tags; competitor Design 29 L1
[16] = biological target: Design 27 L1: D3H44 light chain F116A_V133G_S176F_T178A (humanized); experiment: light chain competition assay: heavy chain co-expressed with L1 and L2, SPR read-out of light-chain tags; competitor Design 27 L2
[17] = biological target: Design 27 L2: D3H44 light chain F118W_Q124E_V133S_S176A_T178S_T180E (humanized); experiment: light chain competition assay: heavy chain co-expressed with L1 and L2, SPR read-out of light-chain tags; competitor Design 27 L1
[18] = biological target: Design 11 L2: D3H44 light chain S176L (humanized); experiment: light chain competition assay: heavy chain co-expressed with L1 and L2, SPR read-out of light-chain tags; competitor Design 11 L1
[19] = biological target: Design 11 L1: D3H44 light chain V133S (humanized); experiment: light chain competition assay: heavy chain co-expressed with L1 and L2, SPR read-out of light-chain tags; competitor Design 11 L2
[20] = biological target: Design 32 L1: D3H44 light chain Q38R (humanized); experiment: light chain competition assay: heavy chain co-expressed with L1 and L2, SPR read-out of light-chain tags; competitor Design 32 L2
[21] = biological target: Design 32 L2: D3H44 light chain Q38E_F98W (humanized); experiment: light chain competition assay: heavy chain co-expressed with L1 and L2, SPR read-out of light-chain tags; competitor Design 32 L1
[22] = biological target: Design 31 L1: D3H44 light chain Q38R_L135W (humanized); experiment: light chain competition assay: heavy chain co-expressed with L1 and L2, SPR read-out of light-chain tags; competitor Design 31 L2
[23] = biological target: Design 31 L2: D3H44 light chain Q38D_F116A_L135A (humanized); experiment: light chain competition assay: heavy chain co-expressed with L1 and L2, SPR read-out of light-chain tags; competitor Design 31 L1
[24] = biological target: Design 14 L2: D3H44 light chain Q124R_Q160K_T178R (humanized); experiment: light chain competition assay: heavy chain co-expressed with L1 and L2, SPR read-out of light-chain tags; competitor Design 14 L1
[25] = biological target: Design 14 L1: D3H44 light chain Q124E_Q160E_T178D (humanized); experiment: light chain competition assay: heavy chain co-expressed with L1 and L2, SPR read-out of light-chain tags; competitor Design 14 L2

## Design 26 H2: D3H44 heavy chain A139W_K145Y_Q175E
[1]
  H2 Readout: 1%
[2]
  H2 Readout: 106%

## Design 15 H2-L2 heterodimer (D3H44 heavy K147T_Q175D_S183L, light Q160K_T178R) (Fab)
[3]
  Kd: 0.071 nM

## Design 28 H2: D3H44 heavy chain A139W_S186K_S188A
[4]
  H2 Readout: 94%
[5]
  H2 Readout: 1%

## Design 13 H2: D3H44 heavy chain K145T_Q179D_S188F
[6]
  H2 Readout: 87%
[7]
  H2 Readout: 14%

## Design 30 H2: D3H44 heavy chain L143E_K145T
[8]
  H2 Readout: 1%
[9]
  H2 Readout: 102%

## Design 12 H1: D3H44 heavy chain V37E_F100D
[10]
  H1 Readout: 99%
[11]
  H1 Readout: 10%

## Design 15 H2: D3H44 heavy chain K147T_Q175D_S183L
[12]
  H2 Readout: 83%
[13]
  H2 Readout: 24%

## Design 29 H2: D3H44 heavy chain L143E_K145T
[14]
  H2 Readout: 1%
[15]
  H2 Readout: 102%

## Design 27 H1: D3H44 heavy chain A139I_K145T_D146G_Q179E_S188G_V190S
[16]
  H1 Readout: 67%
[17]
  H1 Readout: 1%

## Design 11 H1: D3H44 heavy chain S188L_V190Y
[18]
  H1 Readout: 24%
[19]
  H1 Readout: 83%

## Design 32 H1: D3H44 heavy chain Q39E
[20]
  H1 Readout: 98%
[21]
  H1 Readout: 1%

## Design 31 H1-L1 heterodimer (D3H44 heavy Q39D_A139G_V190A, light Q38R_L135W) (Fab)
[3]
  Kd: 0.025 nM

## Design 13 H1-L1 heterodimer (D3H44 heavy L143A_D144G_Q179R, light Q124E_V133W_Q160E_T180E) (Fab)
[3]
  Kd: 0.087 nM

## Design 32 H2: D3H44 heavy chain Q39R
[20]
  H2 Readout: 1%
[21]
  H2 Readout: 93%

## Design 13 H2-L2 heterodimer (D3H44 heavy K145T_Q179D_S188F, light V133A_Q160K_T178R) (Fab)
[3]
  Kd: 0.086 nM

## Design 13 H1: D3H44 heavy chain L143A_D144G_Q179R
[6]
  H1 Readout: 1%
[7]
  H1 Readout: 104%

## Design 11 H2-L2 heterodimer (D3H44 heavy F174V_P175S_S188G, light S176L) (Fab)
[3]
  Kd: 0.04 nM

## Design 28 H1: D3H44 heavy chain A139V_K145L_Q179E_S188G_V190S
[4]
  H1 Readout: 4%
[5]
  H1 Readout: 85%

## Design 15 H1-L1 heterodimer (D3H44 heavy D146G_Q175R, light Q124E_Q160E_T178D) (Fab)
[3]
  Kd: 0.082 nM

## Design 30 H1: D3H44 heavy chain D146G_Q179K
[8]
  H1 Readout: 96%
[9]
  H1 Readout: 1%

## Wild-type D3H44 heterodimer (anti-tissue factor Fab, one heavy chain and one light chain)
[3]
  Kd: 0.052 nM

## Design 31 H1: D3H44 heavy chain Q39D_A139G_V190A
[22]
  H1 Readout: 106%
[23]
  H1 Readout: 1%

## Design 15 H1: D3H44 heavy chain D146G_Q175R
[12]
  H1 Readout: 1%
[13]
  H1 Readout: 93%

## Design 14 H2: D3H44 heavy chain K147E_D148G_Q175D_S183L
[24]
  H2 Readout: 74%
[25]
  H2 Readout: 2%

## Design 30 H1-L1 heterodimer (D3H44 heavy D146G_Q179K, light Q124E_Q160E_T180E) (Fab)
[3]
  Kd: 0.024 nM

## Design 14 H1: D3H44 heavy chain D148G_S181R
[24]
  H1 Readout: 1%
[25]
  H1 Readout: 84%

## Design 30 H2-L2 heterodimer (D3H44 heavy L143E_K145T, light Q160K_T178R) (Fab)
[3]
  Kd: 0.06 nM

## Design 27 H2: D3H44 heavy chain S186K_S188H_V190G
[16]
  H2 Readout: 12%
[17]
  H2 Readout: 85%

## Design 26 H1: D3H44 heavy chain A139G_V190A
[1]
  H1 Readout: 92%
[2]
  H1 Readout: 1%

## D3H44 heavy chain, wild type (Design 12 H2)
[10]
  H2 Readout: 15%
[11]
  H2 Readout: 88%

## Design 11 H2: D3H44 heavy chain F174V_P175S_S188G
[18]
  H2 Readout: 98%
[19]
  H2 Readout: 1%

## Design 31 H2: D3H44 heavy chain Q39R_A139W
[22]
  H2 Readout: 1%
[23]
  H2 Readout: 78%

## Design 11 H1-L1 heterodimer (D3H44 heavy S188L_V190Y, light V133S) (Fab)
[3]
  Kd: 0.043 nM

## Design 29 H1: D3H44 heavy chain L143K_D146G
[14]
  H1 Readout: 93%
[15]
  H1 Readout: 1%
